Results taken from publication PMC9937993, “Structures of the NDP-pyranose mutase belonging to glycosyltransferase family 75 reveal residues important for Mn^2+ coordination and substrate binding” (The Journal of Biological Chemistry, 2023).

Target: the molecule itself
Assay: SEC; size exclusion chromatography of AtRGP2 WT and its F280D/L283D/Y287D mutant (Fig. S12A); column and buffer not given

B1: AtRGP2 wildtype, recombinant (enzyme)
chain: not shown
notes: AtRGP2, UniProtKB Q9LFW1; codon-optimized gene cloned into pET32a; Only the vector pET32a and the nickel-sepharose purification are stated; also called AtRGP2 WT; source: E. coli BL21-Gold (DE3), purified (nickel-sepharose, Superdex 200)
binding result: binds
